Test results from patent US20170137895, “METHODS OF IDENTIFYING ENZYMES AND MICROORGANISMS” (ZYMONOSTICS APS, published 2017).

T1: Mycobacterium smegmatis topoisomerase I (msTopoI) (Mycobacterium smegmatis, UniProt A0R5D9 A0R5D9:2-936)
T1 sequence: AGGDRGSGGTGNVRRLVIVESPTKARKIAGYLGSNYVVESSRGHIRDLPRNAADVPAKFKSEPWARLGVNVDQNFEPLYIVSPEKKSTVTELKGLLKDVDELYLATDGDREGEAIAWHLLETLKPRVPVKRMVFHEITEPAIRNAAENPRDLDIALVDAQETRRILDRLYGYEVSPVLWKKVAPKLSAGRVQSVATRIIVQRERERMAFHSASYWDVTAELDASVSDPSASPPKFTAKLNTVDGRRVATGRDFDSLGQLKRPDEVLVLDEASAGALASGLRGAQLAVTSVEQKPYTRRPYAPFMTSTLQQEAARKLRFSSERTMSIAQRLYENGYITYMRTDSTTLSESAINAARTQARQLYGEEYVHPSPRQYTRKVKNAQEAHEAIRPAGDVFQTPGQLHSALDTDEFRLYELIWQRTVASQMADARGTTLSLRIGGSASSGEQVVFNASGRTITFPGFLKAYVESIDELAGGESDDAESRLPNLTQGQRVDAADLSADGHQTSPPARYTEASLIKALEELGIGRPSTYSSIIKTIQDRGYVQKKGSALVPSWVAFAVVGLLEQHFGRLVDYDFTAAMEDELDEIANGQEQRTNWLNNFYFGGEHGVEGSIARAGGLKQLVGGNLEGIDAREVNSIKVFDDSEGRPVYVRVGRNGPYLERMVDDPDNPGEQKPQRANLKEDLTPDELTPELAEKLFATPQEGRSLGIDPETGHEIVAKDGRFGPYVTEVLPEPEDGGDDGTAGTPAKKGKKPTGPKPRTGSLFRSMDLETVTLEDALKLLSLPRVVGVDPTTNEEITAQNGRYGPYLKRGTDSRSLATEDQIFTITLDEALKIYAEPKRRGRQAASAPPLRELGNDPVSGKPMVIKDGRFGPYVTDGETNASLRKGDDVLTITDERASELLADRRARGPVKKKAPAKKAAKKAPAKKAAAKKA

B1: HIV LTR substrate (dsDNA)
DNA 1: TTTAGTCAGTGTGGAAAATCTCTAGCAGT
DNA 2: ACTGCTAGAGATTTTCCACACTGACTAAA
modifications: 5' amino-C6-T on both strands, SEQ:6 strand immobilised

Assays:
[1] = molecular target: T1, Mycobacterium smegmatis topoisomerase I …; test: ligation of SEQ:16 oligo to substrate; binding in 1 mM EDTA, 300 mM NaCl, 37 C, then 5 mM MgCl2; no numeric result given
Procedure: Prepare a solution containing msTopol as well as 10 mM Tris-HCl (pH 7.5), 1 mM EDTA, and 300 mM NaCl. Add 5 μL to each printed area (see previous section). Incubate for 1 h at 37° C. in humidity chamber. Wash 3×5 minutes in wash buffer 4. To each printed are, add 5 μL of ligation mixture: 2 μM oligonucleotide ([Btn]CAGTGAGCGTCTGGCTGAAGCTTCCGCT; SEQ ID No: 16); 300 mM NaCl; 1 mM Tris-HCl (pH 7.5); 5 mM MgCl₂. Incubate at 37° C. for 1 h in humidity chamber. Wash for 1 min in wash buffer 2, 1 min in wash buffer 3, and 1 min in 96% ethanol. Let the slide air-dry.

HIV integrase = HIV integrase (Human immunodeficiency virus, UniProt P04585 P04585:1148-1435); test: integration of LTR into dsDNA SEQ:12/SEQ:13; MES pH 6.2, 200 mM KCl, 10 mM MnCl2, 10 mM DTT, 37 C; settings: tags: His-tag (pTrcHis), E. coli BL21

Binder	binding result [1]	binding result (HIV integrase)
CAGTGAGCGAGCTTCCGCTTGACATCCCAATAGTTTCTCTTC (ssDNA, 3' amino-C6, immobilised on CodeLink slide) [msTopoI substrate]	binds	
B1		binds
